B1: FLAG-Sestrin2 (other)
chain: MIVADSECRAELKDYLRFAPGGVGDSGPGEEQRESRARRGPRGPSAFIPVEEVLREGAESLEQHLGLEALMSSGRVDNLAVVMGLHPDYFTSFWRLHYLLLHTDGPLASSWRHYIAIMAAARHQCSYLVGSHMAEFLQTGGDPEWLLGLHRAPEKLRKLSEINKLLAHRPWLITKEHIQALLKTGEHTWSLAELIQALVLLTHCHSLSSFVFGCGILPEGDADGSPAPQAPTPPSEQSSPPSRDPLNNSGGFESARDVEALMERMQQLQESLLRDEGTSQEEMESRFELEKSESLLVTPSADILEPSPHPDMLCFVEDPTFGYEDFTRRGAQAPPTFRAQDYTWEDHGYSLIQRLYPEGGQLLDEKFQAAYSLTYNTIAMHSGVDTSVLRRAIWNYIHCVFGIRYDDYDYGEVNQLLERNLKVYIKTVACYPEKTTRRMYNLFWRHFRHSEKVHVNLLLLEARMQAALLYALRAITRYMT
notes: Transiently or stably expressed in HEK-293T cells; also called FLAG-tagged wild-type Sestrin2; wild-type Sestrin2; not shown: FLAG tag
B2: endogenous Sestrin2 (other)
chain: B1 chain
notes: Endogenous protein of human HEK-293T cells
B3: metap2 control protein (enzyme, UniProt P50579 1-478, looked up, not shown: small tags and cut ends)
chain: MAGVEEVAASGSHLNGDLDPDDREEGAASTAEEAAKKKRRKKKKSKGPSAAGEQEPDKESGASVDEVARQLERSALEDKERDEDDEDGDGDGDGATGKKKKKKKKKRGPKVQTDPPSVPICDLYPNGVFPKGQECEYPPTQDGRTAAWRTTSEEKKALDQASEEIWNDFREAAEAHRQVRKYVMSWIKPGMTMIEICEKLEDCSRKLIKENGLNAGLAFPTGCSLNNCAAHYTPNAGDTTVLQYDDICKIDFGTHISGRIIDCAFTVTFNPKYDTLLKAVKDATNTGIKCAGIDVRLCDVGEAIQEVMESYEVEIDGKTYQVKPIRNLNGHSIGQYRIHAGKTVPIVKGGEATRMEEGEVYAIETFGSTGKGVVHDDMECSHYMKNFDVGHVPIRLPRTKHLLNVINENFGTLAFCRRWLDRLGESKYLMALKNLCDLGIVDPYPPLCDIKGSYTAQFEHTILLRPTCKEVVSRGDDY
notes: Control protein; also called FLAG-Metap2; FLAG-metap2
B4: FLAG-Sestrin1 (other)
chain: MAEGENEVRWDGLCSRDSTTRETALENIRQTILRKTEYLRSVKETPHRPSDGLSNTESSDGLNKLLAHLLMLSKRCPFKDVREKSEFILKSIQELGIRIPRPLGQGPSRFIPEKEILQVGSEDAQMHALFADSFAALGRLDNITLVMVFHPQYLESFLKTQHYLLQMDGPLPLHYRHYIGIMAAARHQCSYLVNLHVNDFLHVGGDPKWLNGLENAPQKLQNLGELNKVLAHRPWLITKEHIEGLLKAEEHSWSLAELVHAVVLLTHYHSLASFTFGCGISPEIHCDGGHTFRPPSVSNYCICDITNGNHSVDEMPVNSAENVSVSDSFFEVEALMEKMRQLQECRDEEEASQEEMASRFEIEKRESMFVFSSDDEEVTPARAVSRHFEDTSYGYKDFSRHGMHVPTFRVQDYCWEDHGYSLVNRLYPDVGQLIDEKFHIAYNLTYNTMAMHKDVDTSMLRRAIWNYIHCMFGIRYDDYDYGEINQLLDRSFKVYIKTVVCTPEKVTKRMYDSFWRQFKHSEKVHVNLLLIEARMQAELLYALRAITRYMT
notes: also called recombinant, FLAG-tagged Sestrin1; not shown: FLAG tag
B5: FLAG-Sestrin3 (other)
chain: MNRGGGSPSAAANYLLCTNCRKVLRKDKRIRVSQPLTRGPSAFIPEKEVVQANTVDERTNFLVEEYSTSGRLDNITQVMSLHTQYLESFLRSQFYMLRMDGPLPLPYRHYIAIMAAARHQCSYLINMHVDEFLKTGGIAEWLNGLEYVPQRLKNLNEINKLLAHRPWLITKEHIQKLVKTGENNWSLPELVHAVVLLAHYHALASFVFGSGINPERDPEISNGFRLISVNNFCVCDLANDNNIENASLSGSNFGIVDSLSELEALMERMKRLQEEREDEEASQEEMSTRFEKEKKESLFVVSGDTFHSFPHSDFEDDMIITSDVSRYIEDPGFGYEDFARRGEEHLPTFRAQDYTWENHGFSLVNRLYSDIGHLLDEKFRMVYNLTYNTMATHEDVDTTMLRRALFNYVHCMFGIRYDDYDYGEVNQLLERSLKVYIKTVTCYPERTTKRMYDSYWRQFKHSEKVHVNLLLMEARMQAELLYALRAITRHLT
notes: also called recombinant, FLAG-tagged Sestrin3; not shown: FLAG tag

Assay [1] deals with T1, GATOR1, recombinant (HA-Depdc5, HA-Npr13, HA-Npr12) (UniProt O75140 1-1603; Q8WTW4 1-380; Q12980 1-569, limits assumed).
T1 construct: also called GATOR1 multi-protein complex; not shown: HA tag
The assay can be described thus: anti-FLAG co-immunoprecipitation, transient co-expression in HEK-293T, immunoblot (FIG. 1B). How it is done:
(§1) Two million HEK-293T cells were plated in 10 cm culture dishes and grown. Twenty-four hours later, cells were transfected via the polyethylenimine method (Boussif et al., 1995) with one or more of the pRK5-based cDNA expression plasmids in the following amounts: 300 ng FLAG-Metap2, 100 ng FLAG-WDR24, 50 ng FLAG-Sestrin1, 25 ng FLAG-Sestrin2, 200 ng FLAG-Sestrin3, 2 ng of FLAG-S6K1, or 200 ng each of HA-Mios, HA-WDR59, HA-WDR24, HA-Sec13, HA-Seh1L, HA-Depdc5, HA-Npr13, or HA-Npr12. The total amount of plasmid DNA in each transfection was normalized to 5 μg with empty pRK5.
(§2) The beads were washed 3 times with lysis buffer containing 500 mM NaCl. In the case of transient cotransfection assays to explore the interaction of the Sestrins with GATOR2, beads were incubated in the final salt wash for 30 minutes to reduce non-specific binding.
On the technique in general: A western blot detects proteins with antibodies after separation by electrophoresis.

Assay [2] addresses T2, FLAG-DEPDCS, a GATOR1 component (UniProt O75140 1-1603, limits assumed).
T2 construct: also called FLAG-DEPDC5; not shown: FLAG tag
In words: anti-FLAG co-immunoprecipitation from stably expressing HEK-293T, immunoblot (FIG. 5A).

The assay “FLAG-Sestrin2” concerns the target B1. The assay can be described thus: anti-FLAG co-immunoprecipitation, transient co-expression in HEK-293T, immunoblot (FIG. 1B). How it is done: as §1, §2
The assay “FLAG-Sestrin3” addresses B5. The description is as above. As for the experimental part: as §1, §2
The assay “metap2 control protein” deals with B3. The description is as above. As for the experimental part:
as §1, §2

T1 sequence (O75140 whole entry, chain 1 of 3): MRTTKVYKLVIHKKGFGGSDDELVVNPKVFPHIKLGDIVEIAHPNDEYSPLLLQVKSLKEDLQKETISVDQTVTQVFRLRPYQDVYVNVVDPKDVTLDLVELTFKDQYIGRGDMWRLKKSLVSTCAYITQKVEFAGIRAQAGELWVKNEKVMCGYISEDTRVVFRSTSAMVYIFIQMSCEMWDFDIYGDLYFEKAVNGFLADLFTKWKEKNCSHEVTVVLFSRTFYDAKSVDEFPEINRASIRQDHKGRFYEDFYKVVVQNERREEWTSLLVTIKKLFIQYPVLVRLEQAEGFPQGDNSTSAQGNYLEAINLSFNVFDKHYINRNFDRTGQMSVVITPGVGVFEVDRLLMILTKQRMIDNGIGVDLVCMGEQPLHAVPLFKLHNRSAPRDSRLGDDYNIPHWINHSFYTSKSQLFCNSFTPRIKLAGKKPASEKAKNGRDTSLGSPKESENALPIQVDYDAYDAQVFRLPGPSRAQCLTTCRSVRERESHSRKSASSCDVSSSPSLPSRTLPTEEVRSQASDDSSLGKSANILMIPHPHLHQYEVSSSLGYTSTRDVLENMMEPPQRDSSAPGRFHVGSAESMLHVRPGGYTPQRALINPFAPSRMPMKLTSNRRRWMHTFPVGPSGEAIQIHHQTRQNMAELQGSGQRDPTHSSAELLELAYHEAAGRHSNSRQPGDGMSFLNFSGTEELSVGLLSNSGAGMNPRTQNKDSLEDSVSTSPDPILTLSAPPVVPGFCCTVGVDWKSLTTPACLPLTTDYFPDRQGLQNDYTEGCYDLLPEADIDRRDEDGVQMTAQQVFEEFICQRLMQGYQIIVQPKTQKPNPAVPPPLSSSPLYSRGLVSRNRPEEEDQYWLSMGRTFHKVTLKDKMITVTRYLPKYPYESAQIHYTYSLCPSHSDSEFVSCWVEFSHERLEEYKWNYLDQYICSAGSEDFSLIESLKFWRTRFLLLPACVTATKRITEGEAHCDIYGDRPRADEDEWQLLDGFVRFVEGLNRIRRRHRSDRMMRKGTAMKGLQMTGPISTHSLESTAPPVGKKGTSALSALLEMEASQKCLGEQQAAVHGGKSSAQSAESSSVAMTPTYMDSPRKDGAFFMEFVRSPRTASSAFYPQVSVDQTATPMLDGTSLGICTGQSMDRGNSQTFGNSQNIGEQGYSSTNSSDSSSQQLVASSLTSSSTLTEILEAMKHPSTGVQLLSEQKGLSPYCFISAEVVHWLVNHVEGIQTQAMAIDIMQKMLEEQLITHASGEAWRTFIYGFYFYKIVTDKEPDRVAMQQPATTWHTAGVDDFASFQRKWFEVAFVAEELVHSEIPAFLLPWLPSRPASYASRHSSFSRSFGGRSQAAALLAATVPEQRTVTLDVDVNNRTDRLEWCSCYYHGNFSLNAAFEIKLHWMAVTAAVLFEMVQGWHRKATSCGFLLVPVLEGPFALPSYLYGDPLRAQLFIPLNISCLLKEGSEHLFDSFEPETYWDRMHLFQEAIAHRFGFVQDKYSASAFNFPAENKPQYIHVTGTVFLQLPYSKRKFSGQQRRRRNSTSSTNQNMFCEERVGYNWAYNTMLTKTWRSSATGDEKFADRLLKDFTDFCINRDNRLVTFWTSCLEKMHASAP
T1 sequence (Q8WTW4 whole entry, chain 2 of 3): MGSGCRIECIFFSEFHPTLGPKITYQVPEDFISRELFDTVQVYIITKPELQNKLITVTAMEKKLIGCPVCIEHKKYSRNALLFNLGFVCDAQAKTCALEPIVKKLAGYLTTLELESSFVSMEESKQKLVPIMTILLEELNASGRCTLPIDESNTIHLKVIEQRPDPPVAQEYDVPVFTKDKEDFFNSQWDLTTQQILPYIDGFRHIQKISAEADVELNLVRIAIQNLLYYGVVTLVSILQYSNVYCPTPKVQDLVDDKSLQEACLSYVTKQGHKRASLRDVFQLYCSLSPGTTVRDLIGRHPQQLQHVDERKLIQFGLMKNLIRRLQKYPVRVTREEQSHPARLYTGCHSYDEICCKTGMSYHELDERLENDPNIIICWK
T1 sequence (Q12980 whole entry, chain 3 of 3): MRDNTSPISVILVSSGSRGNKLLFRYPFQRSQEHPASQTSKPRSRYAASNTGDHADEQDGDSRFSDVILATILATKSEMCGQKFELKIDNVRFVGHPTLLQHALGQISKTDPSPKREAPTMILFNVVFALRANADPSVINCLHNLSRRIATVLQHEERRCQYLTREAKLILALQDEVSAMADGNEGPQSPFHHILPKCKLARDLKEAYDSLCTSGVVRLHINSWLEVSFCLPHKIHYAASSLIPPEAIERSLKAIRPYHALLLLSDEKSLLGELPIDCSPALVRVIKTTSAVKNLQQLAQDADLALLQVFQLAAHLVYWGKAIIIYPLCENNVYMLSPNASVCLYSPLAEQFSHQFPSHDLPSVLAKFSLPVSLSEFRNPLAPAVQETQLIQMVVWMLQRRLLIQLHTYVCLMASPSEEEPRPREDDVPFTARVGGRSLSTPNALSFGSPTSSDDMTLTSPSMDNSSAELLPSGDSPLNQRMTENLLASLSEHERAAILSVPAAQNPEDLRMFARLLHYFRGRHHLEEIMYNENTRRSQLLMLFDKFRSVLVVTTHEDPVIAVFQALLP
T2 sequence (O75140 whole entry): as the sequence (O75140 whole entry, chain 1 of 3) above

B1: the binding result in assay [1] is recorded as “no binding”. Consider B2, for which the binding result in assay [2] is on record as “no binding”.

On to B3, for which the binding result in the assay with FLAG-Sestrin2 and with FLAG-Sestrin3 was “no binding” each time. As for B4, the binding result (in assay [1]; with metap2 control protein) was “no binding” each time. Consider B5, for which, in assay [1], the binding result is reported as “no binding”.

The values above are taken from patent US20170285043A1 (WHITEHEAD INSTITUTE FOR BIOMEDICAL RESEARCH, published 2017).
